Measured values from patent publication US20260218204, “APTAMERS SPECIFIC FOR TLR-4 AND USES THEREOF” (Merck Patent GmbH, published 2026).

Target: TLR-4 extracellular domain (Homo sapiens, UniProt O00206 O00206:24-631)
Test: ELONA; 200 nM aptamer, 20 mM Tris pH 7.4, 1 mM MgCl2, 150 mM NaCl, 5 mM KCl, 37 C; among the most efficient binders
Details: tags: C-terminal 6xHis, expressed in baculovirus; label: 5' digoxigenin (ELONA); predicted G4
Description: It was determined if the selected aptamers recognized the TLR-4 protein. To that end, 100 ng/well of 6×HIS-recombinant TLR-4 were added to a 96-well microtiter plate and were incubated at 4° C. for 16 h. Subsequently, individual aptamers labeled with digoxigenin in the 5′ end were diluted at a concentration of 5 μg/mL and then denatured for 10 min at 95° C. and cooled for 10 min on ice. Then, 20 pmol of each of the aptamers in 100 μl (200 nM) of aptamer buffer were added to each well and the plate was incubated for 1 h at 37° C. Finally, the plate was incubated with peroxidase-conjugated anti-digoxigenin antibodies and developed using ABTS. An anti-Li H2A DNA aptamer was used as a positive control (Martin et al., 2013, PLoS ONE 8: e78886).
By means of the same type of assay, aptamers TLRApt#2F and TLRApt#3R were identified.

Chain of TLR-4 extracellular domain (O00206 24-631, one chain of several): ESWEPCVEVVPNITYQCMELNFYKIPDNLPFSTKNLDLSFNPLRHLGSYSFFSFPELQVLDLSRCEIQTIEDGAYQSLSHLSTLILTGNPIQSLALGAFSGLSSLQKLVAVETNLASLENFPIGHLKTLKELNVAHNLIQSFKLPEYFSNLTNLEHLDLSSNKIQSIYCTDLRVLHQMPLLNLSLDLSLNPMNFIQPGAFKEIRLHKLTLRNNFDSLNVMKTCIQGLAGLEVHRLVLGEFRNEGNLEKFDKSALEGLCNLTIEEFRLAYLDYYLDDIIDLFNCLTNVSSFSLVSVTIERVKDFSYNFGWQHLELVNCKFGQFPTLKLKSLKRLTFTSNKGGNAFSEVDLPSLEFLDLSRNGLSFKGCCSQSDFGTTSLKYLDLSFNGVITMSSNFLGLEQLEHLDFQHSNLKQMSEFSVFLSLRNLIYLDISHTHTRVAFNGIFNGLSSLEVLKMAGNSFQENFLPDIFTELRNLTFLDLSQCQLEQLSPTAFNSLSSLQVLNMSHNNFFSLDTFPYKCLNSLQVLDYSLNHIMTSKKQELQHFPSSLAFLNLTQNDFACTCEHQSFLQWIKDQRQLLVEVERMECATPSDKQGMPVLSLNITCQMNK

B1: TLRApt#4F (ssDNA)
DNA: GCGGATGAAGACTGGTGTGCCAATAAACCATATCGCCGCGTTAGCATGTACTCGGTTGGCCCTAAATACGAGCAAC
binding result: binds

B2: TLRApt#1R (ssDNA)
DNA: GTTGCTCGTATTTAGGGCCACCGGCACGGGACAAGGCGCGGGACGGCGTAGATCAGGTCGACACCAGTCTTCATCCGC
binding result: binds
